Results published in patent publication US20260234738A1 (Regeneron, published 2026).
Positions count from the first letter of the chain named.

B1: mAb10930 (antibody, V domains shown)
VH: EVQLVESGGGLVQPGRSLRLSCAASGFTFDDYAMYWVRQAPGKGLEWVSGISWNSGSIGYADSVKGRFTISRDNAKNSLYLQMNSLRAADTALYYCAKDKDWNSRGYYYYGMDVWGQGTTVTVSS
VL: not shown
B2: mAb10939 (antibody, V domains shown)
VH: EVQLVESGGGLVQPGGSLRLSCAASGLTVSSNYMNWVRQVPGKGLEWVSVIYSGGSKFYVDSVKGRFTISRHNSKNTLYLQMNSLRPEDTAVYYCTRDAQYYGMDVWGQGTTVTVSS
VL: DIQMTQSPSSLSASVGDRVTITCRASQSISTYLHWYQQKPGEAPKLLIYAASSLQSGVPSRFSGSGSGTDFTLTISSLQPEDFATYYCQQSYSTPPEIFGQGTKLEIKR
B3: mAb10920 (antibody, V domains shown)
VH: QVQLVESGGGVVQPGRSLRLSCAASGFTFSYYGMHWVRQAPGKGLEWVAVIWYDGSNKFYADSVKGRFTISRDNSKNTLYLQMNSLRAEDTAVYYCAAARPGYYYGMDVWGQGTTVTVSS
VL: DIQMTQSPSSLSASVGDRVTITCRASQGISNYLAWFQQKPGKAPNSLIYAASSLQRGVPSKFSGSGSGTDFTLTISSLQPEDFATYYCQQYNSYPRTFGQGTKVEIKR
B4: mAb10966 (antibody, V domains shown)
VH: EVQLVESGGGLVQPGGSLRLSCAASGLTVSSNYMSWVRQAPGKGLEWVSVIYSGGSTFYADSVKGRFTISRDNSKNTLYLQMNSLRPEDTAVYYCAREGRIAATGYGMDVWGQGTTVTVSS
VL: not shown
B5: mAb10971 (antibody, V domains shown)
VH: EVQLVESGGGLIQPGGSLRLSCAASGVTVSSNYMSWVRQAPGKGLEWVSVIYSGGSTFYSDSVKGRFSISRDNSKNTLYLQMNSLRAEDTAVYYCARDLYYYGMDVWGQGTTVTVSS
VL: DIQLTQSPSFLSASVGDRVTITCRASQGISTYLAWYQQKPGKAPKLLIYAASTLQSGVPSRFSGSGSGTEFTLTISSLQPEDFATYYCQQLDSYPGLTFGGGTKVEIKR
B6: mAb10923 (antibody, V domains shown)
VH: QVQLVQSGAEVKKPGASVKVSCKASGYTFINYYIHWVRQAPGQGLEWMGWINPNSGGTNYAQKFQGRVTMTRDTSISTAYMELSRLRSDDTAVYYCAIITIFGVVTWFDPWGQGTLVTVSS
VL: not shown
B7: mAb10964 (antibody, V domains shown)
VH: QVQLQESGPGLVKPSETLSLTCTVSGGSINNYYWIWIRQPPGKGLEWIGYIYHSGSTNYNPSLKSRVTISVDTSKNQFSLKVSSVTAADTAVYYCANMVRGVYEDDYWGQGTLVTVSS
VL: DIQMTQSPSSLSASVGDRVTITCRASQSISNYLNWYQQKPGKAPKLLIFAASSLRSGVPSRFSGSGSGTDFTLTISSLHPEDFATYYCQQNYNTPLTFGPGTKVDIKR
B8: mAb10921 (antibody, V domains shown)
VH: EVQLVESGGGLVQPGGSLRLSCAASGITVSSNYMSWVRQAPGKGLEWVSVIYSGGSTFYADSVKGRFTISRHNSKNTLYLQMNSLRAEDTAVYYCARERNFDAFDIWGQGTMVTVSS
VL: DIQMTQSPSSVSASVGDRVTITCRASQGISSWLAWYQQKPGKAPKLLIYAASSLQSGVPSRFSGSGSGTDFTLTISSLQPEDFATYYCQQANSFPLFTFGPGTKVDIKR
B9: mAb10913 (antibody, V domains shown)
VH: EVQLVESGGGLVQPGGSLRLSCAASGFTFRNYEMNWVRQAPGKGLEWVSYITSSGSTMYYADSVKGRFTISRDNAKNSLYLQMNSLRAEDTAVYYCARDGFYYYYAMDVWGQGTTVTVSS
VL: QSVLTQPPSVSAAPGQKVTISCSGSSSNIGNNYVSWYQQLPGTAPKLLIYDNNKRPSGIPDRFSGSKSGTSATLGITGLQTGDEADYYCGTWDSSLSVGRVFGTGTKVTVLG
B10: mAb10937 (antibody, V domains shown)
VH: QITLKESGPTLVKPTQTLTLTCTFSGFSLSTNVVGVGWIRQPPGKALEWLALIYWNDDKRYSPSLKSRLTITKDTSKNQVVLTMTNMDPVDTATYYCAHGPTGDYFDYWGQGTLVTVSS
VL: not shown
B11: mAb10934 (antibody, V domains shown)
VH: not shown
VL: DIQMTQSPSSLSASVGDRVTITCQASQDIWNYINWYQQKPGKAPKLLIYDASNLKTGVPSRFSGSGSGTDFTFTISSLQPEDIATYYCQQHDDLPPTFGQGTKVEIKR
B12: mAb10938 (antibody, V domains shown)
VH: EVQLVESGGGLVQPGGSLRLSCAVSGFTVSSNYMSWVRQAPGKGLEWVSLIYSGGSTFYADSVKGRFTISRHNSKNTLYLQMNSLRAEDTAVYYCAREGGYSYDYNYWGQGTLVTVSS
VL: B11 VL with W30R, I33L, K55E, S65I, H91Y, D93N, P96I, K103R, V104L
B13: mAb10935 (antibody, V domains shown)
VH: EVQLVESGGGLVQPGGSLRLSCAASGFTVSSNYMSWVRQAPGKGLEWVSLIYSGGSTYYADSVKGRFTISRHNSKNTLYLQMNSLRSEDTAVYYCARVPLGDYYYGMDVWGQGTTVTVSS
VL: B11 VL with W30N, N31K, I33L, K55E, H91S, D93N, P96L, Q100G
B14: mAb10955 (antibody, V domains shown)
VH: EVQLVESGGGLVQPGGSLRVSCAASGFTVSRNYMSWVRQAPGKGLEWVSVIYSGGSTFYADSVKGRFTISRDNSKNTLYLQMNSLRAEDTAIYYCARYIPRFDPWGQGTLVTVSS
VL: B11 VL with W30S, I33L, Y36F, K42R, K55E, H91Y, D93N, P96I, K103R, V104L
B15: mAb10967 (antibody, V domains shown)
VH: EVQLVESGGGLVQPGGSLRLSCAASGFTVSSNYMSWVRQAPGKGLEWVSVIYPGGSTFYADSVKGRFTISRDNSKNTLYLQMNSLRAEDTAVYYCARDQRDFAWGQGTLVTVSS
VL: B11 VL with W30S, I33L, K55E, S77G, H91Y, D93N, K103R, V104L
B16: mAb10954 (antibody, V domains shown)
VH: EVQLVESGGGLVQPGGSLRLSCAASGITVSSNYMSWVRQAPGKGLEWVSLIYSGGSTYYADSVKGRFTISRDNSKNTLYLQMNSLRVEDTAVYYCARDHGMAAAGYNYWGQGTLVTVSS
VL: B11 VL with W30N, N31K, I33L, K55E, S76N, I83F, Y87F, H91Y, D93N, T97A
B17: mAb10932 (antibody, V domains shown)
VH: EVQLVESGGGLVQSGGSLRLSCAASGLTVSSNYMSWVRQAPGKGLEWVSVIYSGGSTFYSDSVKGRFTISRHNSKNTLYLQMNSLRAEDTAVYYCARARGDAFDIWGQGTMVTVSS
VL: not shown
B18: mAb10989 (antibody, V domains shown)
VH: QVQLVQSGAEVKKPGASVKVSCKASGYIFTGYYMHWVRQAPGQGLEWMGWINPNSGGANYAQKFQGRVTLTRDTSITTVYMELSRLRFDDTAVYYCARGSRYDWNQNNWFDPWGQGTLVTVSS
VL: QSALTQPASVSGSPGQSITISCTGTSSDVGTYNYVSWYQQHPGKAPKLMIFDVSNRPSGVSDRFSGSKSGNTASLTISGLQAEDEADYYCSSFTTSSTVVFGGGTKLTVLG
B19: mAb10936 (antibody, V domains shown)
VH: QVQLVESGGGVVQPGRSLRLSCAASGFTFRNYGMHWVRQAPGKGLEWVSVIWYDGSNRYYADSVKGRFTISRDTSKNTLYLQMNSLRAEDTAVYYCARDPPITGTTGGDAFDIWGQGTMVTVSS
VL: not shown
B20: mAb10982 (antibody, V domains shown)
VH: EVQLVESGGGLVQPGGSLRLSCAASGLTVSSNYMSWVRQAPGKGLEWVSVIYSGGTTYYADSVKGRFTISRHNSKNTLSLQMNSLRAEDTAVYYCARGEGANYYGMDVWGQGTTVTVSS
VL: QSVLTQPPSVSGAPGQRVTISCTGSSSNIGTGYDVHWYQQLPGTAPKLLIYGNSNRPSGVPDRFSGSKSGTSASLAITGLQAEDEADYYCQSYDSSLSGYVVFGGGTKLTVLG
B21: mAb10985 (antibody, V domains shown)
VH: EVQLVESGGGLVQPGRSLRLSCAASGFTFDDYAMHWVRQAPGKGLEWVSGISWNRGSIGYADSVKGRFTISRDNAKNSLYLQMSSLRAEDTALYYCAKDGERWDSVVVPSARNGMDVWGQGTTVTVSS
VL: B20 VL with T31A, Y100S, V101Y, G105T, L109V
B22: mAb10986 (antibody, V domains shown)
VH: EVQLVESGGGLVQPGGSLRLSCAASEFTVSSNYMSWVRQAPGKGLEWVSVIYSGGSTFYADSVKGRFTISRDNSKNTLYLQMNSLRAEDTAVYYCARALPYGDLHFDYWGQGTLVTVSS
VL: B20 VL with S54T, G99D, Y100S, V101Y, G105T, L109V
B23: mAb10984 (antibody, V domains shown)
VH: EVQLVESGGGLVQPGGSLRLSCAASGLTVNRNYMSWVRQAPGKGLEWVSLIYSGGSTYYADSVKGRFTISRDNSKNTLYLQMNSLRLEDTAVYYCARGELGIPYGMDVWGQGTTVTVSS
VL: QSVLTQPPSVSAAPGQKVTISCSGSSSNIGNNYVSWYQQLPGTAPKLLIYDNNKRPSGIPDRFSGSKSGTSATLGITGLQTGDEADYYCGTWDSSLSAGVFGGGTKLTVLG

Biological target: SARS-COV-2 RBD extracellular domain expressed with a C-terminal mouse IgG2a (SARS-CoV-2)

Binder | Kd [nM] | koff [s⁻¹] | kon [M⁻¹ s⁻¹] | t½ [min]
B1 | ≤ 0.0431 | ≤ 1e-05 | 232000 | ≥ 1160
B2 | 0.0387 | 1.15e-05 | 299000 | 1000
B3 | 0.416 |  |  | 39.5
B4 | ≤ 0.0249 |  |  | ≥ 1160
B5 | ≤ 0.0253 | ≤ 1e-05 | 395000 | ≥ 1160
B6 | 0.0435 | 2.83e-05 | 651000 | 408
B7 | ≤ 0.007 |  |  | ≥ 1160
B8 | ≤ 0.0375 | ≤ 1e-05 |  | ≥ 1160
B9 | 0.244 | 0.000152 | 623000 | 76.1
B10 | 0.114 | 7.28e-05 | 639000 | 159
B11 | 0.0832 |  |  | 98.3
B12 | ≤ 0.0322 |  |  | ≥ 1160
B13 | ≤ 0.0261 | ≤ 1e-05 | 383000 | ≥ 1160
B14 | 0.0592 |  |  | 494
B15 | ≤ 0.0251 |  |  | ≥ 1160
B16 | ≤ 0.0173 |  |  | ≥ 1160
B17 | ≤ 0.0413 | ≤ 1e-05 | 242000 | ≥ 1160
B18 |  |  |  | 124
B19 | ≤ 0.0153 | ≤ 1e-05 | 652000 | ≥ 1160
B20 | 0.0544 | 1.69e-05 | 310000 | 684
B21 | 0.0117 |  |  | 911
B22 | ≤ 0.0158 |  |  | ≥ 1160
B23 | ≤ 0.0249 |  |  | ≥ 1160
